Laboratory results as given in the nanobody polyreactivity screen of Harvey et al. (2022).

Experiment: yeast display, Sf9 membrane polyspecificity reagent, FACS + sequencing; frameworks hold sequencing errors
Outline: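 Using colony PCR, genes from sorted yeast display clones were amplified, then sequenced on MiSeq at 2 × 250 and filtered by CDR length. The clones had been stained with 10% biotinylated, detergent-solubilized Sf9 membrane reagent for 1 hour at 4 °C and sorted by FACS into low and high (top ~1%) gates on anti-HA and streptavidin fluorescence. Polyreactivity labels come from the gate of origin.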

| Sequence | polyreactivity (PSR sort gate) |
| --- | --- |
| QVQLVESGGGFVQAGCSLRLSCGASGLTFKTYAMGWYSQARGKERELVAAMSGTGGGTYYADSVKGRFTISRDNAKKTVYLQMNSQKPEDTEVYYCAALHQAYRGFDYWGQGTQVTVSS | high polyreactivity |
| QVQLVESGGGLVQAGGSLSLSCAASGSISYRYAMGWYRQAPGKERELVAAITSGGRTYYADSVKGRFTISRDNAKYTVYLQMNSLKPEDTAVYYCAKSKPVGPYYYWGQGTQVTVSS | high polyreactivity |
| QVQLVESGGGLVQAGGSLRLSCAASGRTIGVYAMGWYRQAPGKERELVAAISWSGGTTYYADSVKGRFTISRDNAKNTVYLQMNSLKPEDTAVYYCDADSYTEVDYWGQGTQVTVSS | low polyreactivity |
| QVQLVESGGGLVQAGGSLRFSCAASGRTFNQNAMGWYRQAPGKERELVAAITSRGGSTFYADSVKGRFTISRDNAKNTVYLQMNSLKPEDTAVYYCNAKSWRYYTMGYWGQGTQVTVSS | high polyreactivity |
| QVQLVESGGGLVQAGGSLRLSCAASGRIFYLNVMGWYRQAPGKERELVAAITRRDVTTYADSVKGRFTISRDNAKNTVYLQMKSLKPEDTAFYYCNAVYYNWIGFDYWGQGTQVTVSS | low polyreactivity |
| QVQLVESGGGLDQAGGSLGLSCAPSGRTFFPYAMGWSRQAPGKEREFVAAITKTDDSTYYADSVKGRFTISRDKAKNTVYLPMNSLKPEDTAVYYCIAGDTQIRFYYWGQGTQVTVSS | low polyreactivity |
| QVQLVESGGGLVQAGGSLRLSCAASGITFTSYVMGWYRQAPGKERELVAAIRWSGGRTYYADSVKGRFTISRDNAKNTVYLQMNSLKPEDTAVYYCNADYAYNSYGYRFYYWGQGTQVTVSS | high polyreactivity |
| QVQLVESGGGLVQAGGSLRLSCSASGLIFGNYGMGWYRQAPGKERELVAVITDDDSTTYADSVKGRFTISRDNAKNTFYLQMNSLKPEDTAVYYCNADNLLGRFDSWGQGTLVTVSS | low polyreactivity |
| QVQLVESGGGLVQAGGSLRLSCAASGRTFVTYGMGWYRQAPGKERQLVAAISKRGSRTYYADSVKGRFTISRDNAKNTVYLQMNSLKPEDTAVYYCNAETYRTTYDYWGQGTQVTVSS | high polyreactivity |
| QVQLVESGGGLVQAGGSISLSCAASGYIFHVYAMGWYRQAPGKERELVAAITSSGGSTYYADSVKGRFTISRDNAKNTVYLQMNSLKPEDTAVYYCAAAPCSFRYRYVVFTFGYWGQGTQVTVSS | high polyreactivity |
| QVQLVDSGGCLVQAGRSLRLSCAASGSIYVPNAMGWYRQAPRKERDLVAGISRGGSTNYADSVKGRFTISRDNAKNSVYLQMKRLKPEDTAVYYCARDSRTIRYYAWFYPFRYDYWGQGTQVTVSS | low polyreactivity |
| QVQLVESGVGLVQAVGSLRLSCAASGRIFPAYVMGWYRQAPGKERELVATIDNGGGTYYADSVKGRFTISCDNAKYTVYLQMNSLKPEDTAVYYCARDRHVRWGLKRDYWGQGTQVTVSS | low polyreactivity |
| QVQLGESGGGLVQAGGSLRLSCAASGSIIQQYAIGWYRQAPGKERELVAAISWGDGSTYYADSVKGRFTISRDNAKNTVYLQKNSLKPEDTAVYYCNAYASAPLWSLEDDYWGQGTQVTVSS | low polyreactivity |
| QVQLVQSGGGLVQAGGSLRLSCAASGLTFYYNVMGWYRQATGKERELVAAITSGGRTYYGDSVKGRFTISRDNAKNTVYLQMNSLKPEDTAVYYCARPYSRAYDYWGQGTEVTVSS | high polyreactivity |
| QVQLEESAGGLVQAGGSLRLSCAASGRIFNYYAMGWYRQAPGKERELVATISSTGSSTYYADSVKGRFTISRDNAKNTVYLQMNSLKPEDTAVYYCAARYVRQYYRAEDYWGQGTQVTVSS | high polyreactivity |
| QVQLVESGGGLVQAGGSLRLSCAASGRTFARNAMGRYRQAPVKERELVAVISKGGSRTYYADSVKGRFTISRDNEKNTVYLQMNSLKPEDTAVYYCAARHYVTRDESYDYWGQVTQVTVSS | high polyreactivity |
| QVQLVESGGGLVQAGGSLRLICAASGFIFGAYTMGWYRQAPGKERELVADISRRGGTTYYADSVKGRFTISRDNAKNTVYLQMISLKPEDTAVYYCAKVANFWYITTLRGYYYWGQGTQVTVSS | high polyreactivity |
| QVQLVESGGGLVQAGGSLRLSCGASGSTSVRYAMGWYRQAPGKERELVAAISSSGGSTYYAVSVKGRFTISRDTAKNTVYLQMNSLKPEDTAVYYCNAVPYTTFDWGQGTQVTVSS | low polyreactivity |
| QVQLVESGGGLVQAGGSLRLSCAASGFIFLYYAMGWYRQAPGKERELVAVITRGGRTYYADSVKGRFTISRDNAKNTVYLQMNSLKPEDTAVYYCAAKAYSYFARIGFDYWGQGTQVTVSS | high polyreactivity |
| QVQLVESGGGLVQAGGSLRLSCAATGFTFGWNDMGWYRQARGKEMELVAAISGGGGSTYYADSVKGRFTISRDNAKNTVYLQMNSLKPEDTAVYYCATDSGTLIVKYDYWGQGTQVTVSS | low polyreactivity |
| QVQLVESGGGLVQAGGSLRLSCAASGIFFGGYYLGWYRQAPATEMELVAGIRSGGSTYYADSVKGRFTISRDNAKNTVYLQMNSLKPEDTAVYYCAKPYYWGDYSQSDSDYWGQGTQVTVSS | low polyreactivity |
| QDQLVESGGGIVQAGGILRLSCASSGFIFRGYAMGWYRQAPGKEWELVAAINSGDSTNYADSVKGRFTISRDNAKNTVSLQMNSLKREDTAVYYCAASIYAALNGGEGYDYWGQGTQVTVSS | low polyreactivity |

| Sequence | polyreactivity (PSR sort gate) |
| --- | --- |
| QVQLVESGGGLVQAGGSLRLSCAASGFTFRNYAMGWYRQAPGKERELVAAISKSGGSTYYADSVKGRFTISRDNAKNTVYLQMNSLKPEDTAVYYCATDYLYVYGFEYYYWGQGTQVTVSS | high polyreactivity |
| QVQLVESGGGLVQAGVSLRLSCPASGRTFGWYAMGWYRQAPGTERELVAAITSGTSTYYADSVKGRFTISRDNAKNTVYLQMNSLKPEDTAVYYCAVDRGISVGYTRFDYWGQGTQVSVSS | low polyreactivity |
| QVQLVESGGGLVQAGGSLSLSCAASGSTFTEYAMGWDRQAPGKERELVAGISSDGSTKYADSVKGRFTISRDNAMNTVYLQMNSLKTEDTAVYYCYIVQSYAKYDYWGQGTQVTVSS | low polyreactivity |
| QVQLVESGGGLVQAGGSLRLSCAASGFIFDVNAMGWYRQAPGKETELVAAISKSGRRTYYADSVKGRFTISRDNAKNTVYLQMNSLKPEDTAVYYCAASLRASPSFGYWGQGTQVTVSS | high polyreactivity |
| QVQLVESGGGLVQAGGSLRLSCAASGFIFTKYSMGWYRQAPGKERELVAAIRGSGGSTYYADSVKGRFTISRDIAKNSVYLQMNSLKPEDTAVYYCAAERSLGYDYWGQGTQVTVSS | high polyreactivity |
| QVQLVESGGGLVQAGGSLRLSCASSGFIFRHYAMGWYRQAPGKARELVAVINWSGSSTYYADSVKGRFTISRDNAKNTVYLQMNSLKPEDTAVYYCAVRSLRVDKYGYWGQGTQVTVSS | high polyreactivity |
| QVQLVESGGGLVQAGGSLRLSCAASGSTFGYYAMGWYRQAPGKERELVATINRSGGSTYYADSVKGRFSISRDNAKNTVYLQMNSLKPEDTAVYYCNKLAYAGFGYIGSGYWGQGTQVTVSS | low polyreactivity |
| QVQLVESGGGLVQAGGSLRLSCAASGSTFAYYAMGWYRQAPGKERELVAAISRTGGSTYYADSVKGRFTISRDNAKNTVYLQMNSLKPEDTAVYYCNARAPVGTFDYDYWGQGTQVTVSS | low polyreactivity |
| QVQLVESGGGLVQAGGSLRLSCAASGRIFRYNAMGWYRQAPGKERELVAAITNGGSTNYADSVKGRFTISRDNAKNTVYLQMNSLKPEDTAVYYCAAEGNGYLVSTWWVRYEYWGQGTQVTVSS | low polyreactivity |
| QVQLVESGGGLVQAGGSLRLSCAASGRIFYFNTMGWYRQAPGKERELVAAISRSGTSTYYADSVKGRFTISRDNAKNTVYLQMNSLKPEDTAVYYCAAVKSYYKLDYWGQGTQVTVSS | high polyreactivity |
| QVQLVESGGGLVQAGGSLRLSCAASGRTFRYYAMGWYRPAPGKERELVAAITSGGTSTYYADSVKGRFTISRDNAKNTVYLQMYSLKPEDTAVYYCAAGRRSYSFHNVVRGYDYWGQGTQVTVSS | high polyreactivity |
| QFQLVESGGGLVQAGGSLRLSCAASGRIFVRYAMGWYRQAPGKERELVAGITWSGGSTYYADSVKGRFTISRDNSKNTVYLQMNSLKPEDTAVYYCAAERRFYTSYKSKMESCGQGTQVTVSS | high polyreactivity |
| QVQLVESGGGLVQAGGSLRLTCAASGRISRYYAMGWYRQAPGKERELVATITFSGGSTYYADSVKGRFTISRDNAKNTVYLQMNSLKPEDTAVYYCAKQRGGAYLVPWYGYWGQGTQVTVSS | high polyreactivity |
| QVQRVESGGGLVQAGGSLRLSCAASGRTFFGYAMGWYRQAPGKERELVAAITSGGSTNYADSVKGRFTISRDNAKNTVYLQMNSLKPEDTAVYYCAASEDGSVSYESTYPEYDYWGQGTQVTVSS | low polyreactivity |
| QVQLVESGGGLVQAGVSLRLSCAASGRTFYVNAMGWYRQAPGKERELVAAISYSDGITYYADSVKARFTISRDNAKNTVYLQMNSLKPEDTAVYYCAAEGYHYYSQRAGVDYWGQGTQVTVSS | high polyreactivity |
| QVQLVESGGGLVQAGGSLRLSCAASGFTFGYYTMGWYRQAPGKERELVASISWDGGSTYYADSVKGRFTISRDNAKNTVYLQMHSLKPEDTAVYYCATDDYDQLAVGAYDYWGQGTQVTVSS | low polyreactivity |
| QVQLVESGGGLVQAGGSLRLSCAASGITLYYNAMGWYRQAPGKESELVAAITWSGSRTYYADSVKGRFTISRDNAKNTVYLQMNSLKPEDTAVSYCAADVDFWNTVEDMDYWGQGNQVTVSS | low polyreactivity |
| QVQLVESGGGLVQAGGSLRLSCAASGRTFRRNAMGWYRQAPGKERELVADISNGDSTKYADSVKGRFTISRDNAKNTVYLHMNRLKPVDTAVYYCNAQRYRVVVYNSHGWQTRNYWGQGTQVTVSS | low polyreactivity |
| QVQLVESGGGLVHAGGSLRLSCAPSAFTFAYYAMGWYRQAPGKEREFVAAITKGGGSTNYADSVKGRFTISRDNAKNTVYLQMYSLKPEDTAVYYSNADYFVWYIGRVFSRYGYWGQGTQVTVSS | low polyreactivity |
| QVQLVESGGGLVQAGGSLRLSCAASGFTFFYYVMGWYRQAPGKERDLVAAITRGGSTYYADSVKGRFTISRDNAKNTVDLQMNSLKPEDTAVYYCNKVLRVYLGRFEYYSWGQGTQVTVSS | high polyreactivity |
| QVQLVESGGGLVQAGGSLRLSCAASGRIFYYYAMGWYRQAPGKERELVATISRAGITNYADSVKGRFTISRDNAKNTVYLQMNSLKPEDTAVYYCADTFYPWRYNYEYWGQGTQVTVSS | high polyreactivity |
